The target in the assay is SARS-CoV-2 RBD-SD1 (SARS-CoV-2, Wuhan-Hu-1, UniProt P0DTC2). The experiment in a line: BLI.

B1: 54042-4 IgG (antibody, V domains shown)
VH: QITLKESGPTLVKPTQTLTLTCTFSGFSLSTIGVGVSWIRQPPGKALDWLALIYWDDDKRYSPSLKSRLTVTMDTSKNQVVLTLTNMDPVDTATYFCAHGLFSSSDWGGLDVWGQGTTVTVSS
VL: DMQMTQSPSSLSASVGDRVTITCRASQSVFTYLNWYQQKPGKAPKLLIYAASRLQSGVPSRFRGSGSGTDFTLTISSLQPEDFATYYCQQSHSTPFIFGPGTKVDIK
What is called Kd is the free concentration of one partner at which half of the binding sites on the other are occupied at equilibrium, for simple one-to-one binding. A higher Kd goes with weaker binding. On to B1, for which the affinity, expressed as Kd, was 21.8 nM.

Values taken from publication doi:10.1101/2021.05.16.444004 (bioRxiv, 2021).
